From publication PMC9169858 (2022) come the findings set out here.

This assay has as its target SARS-CoV-2 main protease (M^pro), pGEX4T-1 construct, GST removed by thrombin (SARS-CoV-2, UniProt P0DTD1). Briefly: BLI. On the technique in general: Biolayer interferometry detects binding as a change in optical thickness at a sensor tip.

“And” between values parts separate entries of the source, which are not always exact repeats. Identical values can stand only once.

B1: NB1D10 (VHH)
VHH: QVQLQESGGGSVQAGGSLRLSCAVSGYSYCNYDLGWFRQAPGKEREGIATIDSDGNTYYVDSVKGRFTISQDNAKNTVALQMNSLKPEDTAMYYCKVGSIASSVPEVSCPPSAPFGYWGQGTQVTVSS
For orientation: Kd means a measure of binding affinity in units of concentration. Regarding B1, the Kd is 0.43 nM and 0.431 nM.

B2: NB2E3 (VHH)
VHH: QVQLQESGGGSVQAGGSLRLSCAVSGFIATSCALGWFRQAPGKEREGIATITTDGTTYYVDSVKGRFTISQDNAKNTVALQMNSLKPEDTAMYYCKLCCSGQYCAWGQGTQVTVSS
B2 came in with a dissociation constant Kd of 2.7 nM.
